Entries after “also recorded” stand apart in the source; their conditions may differ. Where two headings read alike, the source gives them in different places. Where no end group is shown, it is not given here. [ ]: non-standard residue; d: D form. hPhe = N[C@@H](CCc1ccccc1)C(=O)O
Assays:
[1] = tested on: multiple MMPs; experiment: Specificity of first generation cleavable site among MMPs; format: biochemical
Source text: In contrast to mRNA expression or copy number detection methods, RACPPs detect in vivo protease activity, thus bypassing the complicated interplay between transcription/translation, pro- and active forms of the enzymes, as well as the presence of inhibitors/activators etc. It was shown that RACPP uptake correlates with tumor burden^15 and with tumor characteristics corresponding to poor survival^18.
RACPPs are capable of monitoring protease activity in real time living animal models of cancer. […] To tease out the involvement of specific individual proteases involved in the various stages of cancer growth, invasion and metastasis, it was sought to identify RACPP cleavable sites that are specific for individual select proteases.

[2] = biological target: T1, MMP-2 (Homo sapiens, UniProt P08253); experiment: Cell uptake after cleavage of linker by MMP-2; format: cell-based; conditions: cleaved by MMP-2
T1 sequence (P08253 110-660): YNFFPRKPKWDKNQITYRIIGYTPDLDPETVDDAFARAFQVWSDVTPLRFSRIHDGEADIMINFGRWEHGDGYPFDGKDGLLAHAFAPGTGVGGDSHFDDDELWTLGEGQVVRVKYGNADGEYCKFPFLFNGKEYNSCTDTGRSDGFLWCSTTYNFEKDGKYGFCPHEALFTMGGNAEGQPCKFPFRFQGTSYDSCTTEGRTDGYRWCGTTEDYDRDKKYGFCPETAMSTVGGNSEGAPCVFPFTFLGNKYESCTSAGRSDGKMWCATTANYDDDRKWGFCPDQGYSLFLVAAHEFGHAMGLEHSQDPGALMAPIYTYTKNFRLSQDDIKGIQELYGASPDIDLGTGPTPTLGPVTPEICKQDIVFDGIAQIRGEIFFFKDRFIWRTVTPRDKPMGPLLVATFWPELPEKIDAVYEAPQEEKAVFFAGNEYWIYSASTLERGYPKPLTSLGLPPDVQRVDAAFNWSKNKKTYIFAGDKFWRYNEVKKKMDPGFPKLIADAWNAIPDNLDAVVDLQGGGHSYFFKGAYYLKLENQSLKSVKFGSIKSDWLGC
Source text: For example, a linker X that includes the amino-acid sequence PLGLAG (SEQ ID NO: 1) may be cleaved by the metalloproteinase enzyme MMP-2 (a major MMP in cancer and inflammation). Cleavage of such a linker X occurs between the central G and L residues, causing cell uptake to increase by 10 to 20-fold. A great deal is known about the substrate preferences of different MMPs, so that linkers X may be designed that are able to bias X to be preferentially sensitive to particular subclasses of MMPs, or to individual members of the large MMP family of proteinases. For example, in some embodiments, linkers X designed to be cleaved by membrane-anchored MMPs are particularly employed because their activity remains localized to the outer surface of the expressing cell. In alternative embodiments, linkers X designed to be cleaved by a soluble secreted MMP are employed where diffusion of cargo C away from the exact location of cleavage may be desired, thereby increasing the spatial distribution of the cargo. Other linkers X cleavable by other MMPs are discussed throughout the application.

[3] = biological target: MMP-14 (Homo sapiens, UniProt P50281); experiment: Cleavage of ACPP substrates by purified MMP-14; format: biochemical; conditions: versus MMP-2 and MMP-9
Protocol: (§1) FIG. 7 describes selectivity for substrates for MMP2, 9 and 14 (1 uM peptide 20 nM enzyme). A) MT1 selective RSHPHfeTLY (SEQ ID NO: 19).
(§2) FIG. 8A, FIG. 8B and FIG. 8C describe selectivity for substrate cut with MMP-2, MMP9 and MMP-14.
(§3) To generate new substrates for MMPs, amino acids were substituted at key position at and near the cleavage site based on the following rule derived by recent work by Ratnikov et al^26 that the amino acid at a certain position must improve cleavage by the specific enzyme and reduce cleavage by other related enzymes. For increased specificity, an amino acid should be red for the enzyme of interest compared green for the other enzymes at the same substitution position (FIG. 36A). These substrates will be tested by treating 5 μM peptide with 20 nM of each enzyme for 2 hours and analyse by gel electrophoresis.
(§4) FAM/Cy5 ratiometric versions of RACPPs with these sequences were made and tested to confirm selectivity. The preferred form Cy5/Cy7 ratiometric versions for in vivo testing with a pegylated carrier to help with solubility is currently being synthesized. For MMP 11 a similar approach will be adopted in finding selective substrates.^26.

[4] = biological target: MT2-MMP (Homo sapiens, UniProt P51511); experiment: Cleavage of RS-(Cit)-G-(homoF)-YLY derivatives by MT2-MMP; format: biochemical
Sequence of MT2-MMP (P51511 132-669, species assumed): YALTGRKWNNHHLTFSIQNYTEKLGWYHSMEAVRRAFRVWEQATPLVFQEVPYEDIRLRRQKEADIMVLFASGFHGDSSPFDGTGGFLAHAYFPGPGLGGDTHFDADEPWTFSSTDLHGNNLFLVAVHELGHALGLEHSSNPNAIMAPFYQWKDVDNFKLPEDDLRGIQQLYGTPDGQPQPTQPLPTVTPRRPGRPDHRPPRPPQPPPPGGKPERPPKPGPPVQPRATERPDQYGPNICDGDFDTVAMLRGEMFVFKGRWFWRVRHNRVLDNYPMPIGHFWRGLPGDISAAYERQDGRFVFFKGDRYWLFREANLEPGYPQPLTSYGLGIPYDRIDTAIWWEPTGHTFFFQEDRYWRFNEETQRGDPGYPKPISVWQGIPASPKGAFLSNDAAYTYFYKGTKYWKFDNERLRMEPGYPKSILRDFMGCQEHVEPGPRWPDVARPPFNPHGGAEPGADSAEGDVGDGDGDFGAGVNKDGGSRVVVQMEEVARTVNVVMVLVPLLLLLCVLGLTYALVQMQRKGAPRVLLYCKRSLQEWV

[5] = biological target: MMP9 (Homo sapiens, UniProt P14780); experiment: Cleavage of ACPP substrates by purified MMP-9; format: biochemical; conditions: versus MMP-2 and MMP-14
Sequence of MMP9 (P14780 94-707): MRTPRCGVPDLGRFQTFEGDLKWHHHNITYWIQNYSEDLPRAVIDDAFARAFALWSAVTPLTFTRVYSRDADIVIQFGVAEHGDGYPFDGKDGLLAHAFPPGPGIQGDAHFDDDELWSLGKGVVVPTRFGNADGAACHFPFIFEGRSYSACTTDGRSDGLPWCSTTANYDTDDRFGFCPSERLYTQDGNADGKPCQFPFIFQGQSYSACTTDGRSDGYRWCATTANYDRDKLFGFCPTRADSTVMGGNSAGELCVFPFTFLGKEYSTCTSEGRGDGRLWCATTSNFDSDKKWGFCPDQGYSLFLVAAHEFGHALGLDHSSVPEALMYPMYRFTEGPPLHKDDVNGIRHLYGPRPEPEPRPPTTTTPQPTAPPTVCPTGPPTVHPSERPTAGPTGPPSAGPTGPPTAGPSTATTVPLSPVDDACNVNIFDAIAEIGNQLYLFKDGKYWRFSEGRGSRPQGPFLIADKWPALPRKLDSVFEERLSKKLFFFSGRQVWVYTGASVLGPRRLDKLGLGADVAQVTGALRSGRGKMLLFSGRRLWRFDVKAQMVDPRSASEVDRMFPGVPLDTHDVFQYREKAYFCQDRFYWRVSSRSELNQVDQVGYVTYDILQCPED
Protocol: as §1, §2, §3, §4

[6] = biological target: T1, MMP-2; experiment: Cleavage of ACPP substrates by purified MMP-2; format: biochemical; conditions: versus MMP-9 and MMP-14
Protocol: as §1, §2, §3, §4

[7] = biological target: urokinase plasminogen activator (uPA) (Homo sapiens, UniProt P00749); experiment: Screen of protease substrates for cleavage by uPA; format: biochemical; conditions: substrate in the context of an ACPP
Protocol: (§5) To generate novel RACPP species that are selective for uPA, a set of protease substrates were screened that were diverse and likely cleaved by serine protease in that they contain either a lysine or arginine residue flanked by diverse amino acids. […] Several other substrates that were reported to be cleaved by uPA were also tested but were not cleaved possible because the constrained structure of the substrate within the context of an ACPP.
To generate novel RACPP species that are specific for uPA, a set of protease substrates were screened that were diverse and likely cleaved by serine protease in that they contain either a lysine or arginine residue flanked by diverse amino acids.

[8] = biological target: tPA (Homo sapiens, UniProt P00750); experiment: Screen of protease substrates for cleavage by tPA; format: biochemical; conditions: compared with uPA
Sequence of tPA (P00750 36-562, species assumed): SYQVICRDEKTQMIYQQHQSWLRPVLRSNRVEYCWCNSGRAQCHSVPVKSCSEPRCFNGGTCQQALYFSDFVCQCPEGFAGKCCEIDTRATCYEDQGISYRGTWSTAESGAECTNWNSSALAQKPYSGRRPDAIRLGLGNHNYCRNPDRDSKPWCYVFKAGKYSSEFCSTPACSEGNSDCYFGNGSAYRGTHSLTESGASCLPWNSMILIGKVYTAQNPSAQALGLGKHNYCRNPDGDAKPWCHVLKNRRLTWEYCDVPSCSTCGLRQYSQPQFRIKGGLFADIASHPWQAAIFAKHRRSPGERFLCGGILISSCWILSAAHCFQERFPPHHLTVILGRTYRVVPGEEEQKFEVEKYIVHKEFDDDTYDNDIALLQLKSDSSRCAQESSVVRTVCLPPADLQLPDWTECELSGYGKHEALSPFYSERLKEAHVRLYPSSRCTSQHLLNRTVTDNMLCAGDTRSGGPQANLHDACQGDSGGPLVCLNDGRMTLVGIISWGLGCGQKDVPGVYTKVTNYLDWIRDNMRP
Protocol: as §5

PLGC(Me)AG was tested, and the “cleavage by multiple MMPs (lack of specificity)” value [1] was “cut by multiple MMPs” and the “cleavage by multiple MMPs (lack of specificity)” value ([1]; listed as PLGC(me)AG) was “cleaved by multiple proteases”.

PLGLAG (cleavable linker) was tested, and the “increase of cell uptake after cleavage between the central G and L residues” value [2] was 10 to 20 fold.

With RS-(Cit)-G-(homoF)-YLY the “cleavage by / selectivity for MMP-14 (MT1-MMP)” value [3] was “MMP14 selective”.

With RS-Q-G-(homoF)-YLY (RSQG[hPhe]YLY) the “cleavage by MT2-MMP” value [4] was “significant cleavage”.

RSHG-(homoF)-FLY (RSHG[hPhe]FLY) was tested, and the “cleavage by / selectivity for MMP-14 (MT1-MMP)” value [3] was “highly selective and efficiently cleaved” and the “cleavage by / selectivity for MMP-14 (MT1-MMP)” value ([3]; listed as RSHG(Hfe)FLY) was “selective”.

In the case of RSHP[hPhe]TLY, the “cleavage by / selectivity for MMP-14 (MT1-MMP)” value [3] is reported as “MMP14 selective” and the “cleavage by / selectivity for MMP-14 (MT1-MMP)” value ([3]; listed as RSHPHfeTLY) is reported as “MT1 selective”.

SNPYG-Y (SNPYGY; cleavable linker) was tested, and the “cleavage by / selectivity for MMP9” value [5] was “MMP9 selective”.

With SNPYK-Y (SNPYKY; cleavable linker) the “cleavage by / selectivity for MMP9” value [5] was “MMP9 selective” and the “cleavage by / selectivity for MMP9” value ([5]; listed as SNPYKY) was “selective”.

In the case of TIAH/LH, the “cleavage by / selectivity for MMP-2” value [6] is reported as “selectively cleaved”.

For TIAHLA (cleavable linker), the “cleavage by / selectivity for MMP-2” value [6] was “MMP2 selective”.

In the case of TLSE-LH (TLSELH; cleavable linker), the “cleavage by / selectivity for MMP-2” value [6] is reported as “MMP-2 selective”.

In the case of YGRAAA (cleavable linker), the “cleavage by uPA” value [7] is reported as “efficiently cleaved; also recorded: increase in Cy5/Cy7 signal ratio” and the “cleavage by tPA” value [8] is reported as “to a lesser extent”.
